Data as given in US20170128544A1.

Target: Bb, the active site-bearing fragment of Factor B (human) (UniProt P00751)
Experiment: surface plasmon resonance, decay-dissociation of the convertase

Chain of Bb, the active site-bearing fragment of Factor B (human) (P00751 260-764 limits assumed): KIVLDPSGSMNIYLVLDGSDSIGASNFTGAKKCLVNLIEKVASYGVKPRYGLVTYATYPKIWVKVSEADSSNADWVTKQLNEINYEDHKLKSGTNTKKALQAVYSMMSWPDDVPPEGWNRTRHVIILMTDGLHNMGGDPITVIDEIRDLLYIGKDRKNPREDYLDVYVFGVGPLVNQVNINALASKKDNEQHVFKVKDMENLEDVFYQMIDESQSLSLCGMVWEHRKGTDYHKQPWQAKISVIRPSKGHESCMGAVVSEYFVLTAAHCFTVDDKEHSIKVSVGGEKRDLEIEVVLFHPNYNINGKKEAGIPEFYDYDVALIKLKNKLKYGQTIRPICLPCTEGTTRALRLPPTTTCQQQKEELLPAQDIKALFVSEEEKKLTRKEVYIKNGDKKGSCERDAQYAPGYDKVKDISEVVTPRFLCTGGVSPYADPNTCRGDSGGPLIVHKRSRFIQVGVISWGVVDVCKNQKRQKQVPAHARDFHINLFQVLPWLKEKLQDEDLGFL

Work on “cobra venom factor (CVF), natural (from UniProt Q91132 23-649; Q91132 733-984; Q91132 1264-1642)” yielded a Half-life at 25° C. (hrs) of the spontaneous decay-dissociation of 19.2 h.
“humanized cobra venom factor (hCVF) protein HC3-1550b (from UniProt P01024 23-1549; Q91132 1529-1642)” was tested, and the Half-life at 25° C. (hrs) of the spontaneous decay-dissociation was 2 h.
